{"source": "paper PMC5074588", "about": "“TCS1, a Microtubule-Binding Protein, Interacts with KCBP/ZWICHEL to Regulate Trichome Cell Shape in Arabidopsis thaliana” (PLoS Genetics, 2016)", "binders": {"B1": {"name": "MBP-TCS1 (TRICHOME CELL SHAPE 1 fused to maltose binding protein) (natural protein, Arabidopsis thaliana, UniProt Q0WSY2 1-982, looked up)", "chain": "MDRKSWPWKKKSSEKTATVTEVVDQENGKKPSYIQISFDQYTNLNGLKDEVKSYEEKVTKLEDQIKDLDLKLSTANADIVAKEVLVKQHSKVAEEAVTGWEKAEAEASALKTHLETITLAKLTVEDRAAHLDGALKECMRQIRSLKEENEQKLHDVIATKTNQMDNLRAEFESRIGEYEEELLRCGAENDALSRSLQERSNMLMRISEEKSQAESEIEHLKNNIESCEREINTLKYETHVITKELEIRNEEKNMSMRSAEAANKQHLEGVKKIAKLEAECQRLRTLVRKKLPGPAALAQMKMEVESLGFGDHRQDHRQRRSPVRPSSPLMSPMSHMSQVSEFSLDNMQKFHKENDLLTERLLAMEEETKMLKEALAKRNSELQVSRNLCAKTANRLQTLEAQMMSKSPTKRGFEMPAEIFSRQNASNPPSMASMSEDGNEDARSVAGSLMSELSQSNKDKANAKIKKTESANQLELMDDFLEMEKLACLPNGSNANGSTDHSSADSDAEIPPATQLKKRISNVLQSLPKDAAFEKILAEIQCAVKDAGVKLPSKSHGANLNGLTEEKVIAMSNETTEEKVTIVEVITQELSDALSQIYQFVTYLSKEATACSENRTFSQKVQEFSTTFEGVLGKEKTLVDFLFDLSRVLVEASELKIDVLGFHTSTVEIHSPDCIDKVALPENKALQKDSSGEHYQNGCSQSSDSEIPDDCNGTSGYEPKLATCKFTTEEFEGLKLEKEKAESNLASCEADLEATKTKLQETEKLLAEVKSDLESAQKSNGMGETQLKCMVESYRSLETRSSELEIELTSLKGKIENLEDELHDEKENHREALAKCQELEEQLQRNNQNCPNCSVIEDDPKSKQDNELAAAAEKLAECQETILLLGKQLKSMCPQTEQVASSPSQEQQALNPEEEEYATSTNPQDSKLSSPSDKDTPSMNTMKSPVASKHRHTKSNSSSSSSGLTPEKHSRGFSRFFSTKAK", "notes": "TCS1, Arabidopsis thaliana, At1g19835, a 982-amino-acid coiled-coil protein; also called MBP-TCS1 fusion protein; source: E. coli Rosetta (DE3); bacterial lysate in the pull-downs"}}, "target": "tubulins (tubulin dimers; paclitaxel-stabilized microtubules)", "sequence (chain, as listed by the source, chain 1 of 2)": "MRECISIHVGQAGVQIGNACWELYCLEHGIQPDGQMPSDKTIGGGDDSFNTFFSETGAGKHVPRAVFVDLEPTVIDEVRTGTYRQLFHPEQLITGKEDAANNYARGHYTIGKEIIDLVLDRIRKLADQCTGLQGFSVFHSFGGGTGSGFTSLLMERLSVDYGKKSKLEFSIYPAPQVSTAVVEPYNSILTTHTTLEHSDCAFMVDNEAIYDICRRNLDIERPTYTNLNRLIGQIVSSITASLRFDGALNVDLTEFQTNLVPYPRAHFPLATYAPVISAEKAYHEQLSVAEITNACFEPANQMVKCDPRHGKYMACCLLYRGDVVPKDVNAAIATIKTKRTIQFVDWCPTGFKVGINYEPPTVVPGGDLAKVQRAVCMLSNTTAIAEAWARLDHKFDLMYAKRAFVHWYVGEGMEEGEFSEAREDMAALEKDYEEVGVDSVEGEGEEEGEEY", "sequence (chain, as listed by the source, chain 2 of 2)": "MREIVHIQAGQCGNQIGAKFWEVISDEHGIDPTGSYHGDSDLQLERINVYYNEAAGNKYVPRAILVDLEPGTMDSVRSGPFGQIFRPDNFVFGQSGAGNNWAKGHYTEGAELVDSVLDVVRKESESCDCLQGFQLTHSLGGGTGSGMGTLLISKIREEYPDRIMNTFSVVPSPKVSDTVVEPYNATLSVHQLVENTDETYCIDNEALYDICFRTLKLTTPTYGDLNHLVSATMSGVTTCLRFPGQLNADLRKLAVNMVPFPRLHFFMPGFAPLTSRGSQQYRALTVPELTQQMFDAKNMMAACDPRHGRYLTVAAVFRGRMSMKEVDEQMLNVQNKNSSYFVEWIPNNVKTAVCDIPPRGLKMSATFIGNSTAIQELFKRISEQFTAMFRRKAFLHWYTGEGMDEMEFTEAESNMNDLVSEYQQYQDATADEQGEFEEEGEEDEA", "assay": "co-sedimentation; different concentrations of the protein added to paclitaxel-stabilized microtubules (prepolymerized from 8 uM tubulins in Fig 5A, 5 uM in S7 Fig) in PEMT buffer (1 mM MgCl2, 1 mM EGTA, 100 mM PIPES, 20 uM taxol, pH 6.9); 25 C 30 min; 100,000g 30 min; SDS-PAGE, Coomassie", "settings": "both partners purified", "data": [{"binder": "B1", "values": [{"measurement": "stoichiometry N", "value": "~0.38 M MBP-TCS1 per mole of tubulin dimers"}]}]}
